Assay in all cases: purified protein
Common to all, as to assay type: biochemical, uncultured Sphingomonas sp.

The subject of series [1] is T1, CC(=O)Oc1ccc([N+](=O)[O-])cc1.
T1 construct: full length, 324 residues, N-terminal His6 tag (p15TV-L), expressed in E. coli BL21(DE3), Ni-NTA purified; homodimer
The settings on record: 50 mM potassium phosphate pH 7.0, 0.3% Triton X-100, 30 °C, up to 5% DMSO-acetonitrile.

The subject of series [2] is T2, CCCC(=O)Oc1ccc([N+](=O)[O-])cc1.
T2 construct: full length, 324 residues, N-terminal His6 tag (p15TV-L), expressed in E. coli BL21(DE3), Ni-NTA purified; homodimer
As to conditions: 50 mM potassium phosphate pH 7.0, 0.3% Triton X-100, 30 °C, up to 5% DMSO-acetonitrile.

The subject of series [3] is T3, CCCCCCCCCCCC(=O)Oc1ccc([N+](=O)[O-])cc1.
T3 construct: full length, 324 residues, N-terminal His6 tag (p15TV-L), expressed in E. coli BL21(DE3), Ni-NTA purified; homodimer
The settings on record: 50 mM potassium phosphate pH 7.0, 0.3% Triton X-100, 30 °C, up to 7.5% DMSO-acetonitrile.

As to EH0 (uncultured Sphingomonas sp.), in series [1], the Km was 1610 ± 120 µM, the Vmax amounted to 292 µM/min, the turnover number (kcat) amounted to 0.694 ± 0.0182 s⁻¹ and the kcat/Km amounted to 430 M⁻¹ s⁻¹. In series [2], the Km is 1080 ± 180 µM, the Vmax worked out at 253 µM/min, the kcat stood at 0.602 ± 0.033 s⁻¹ and the specificity constant (kcat/Km) stood at 558 M⁻¹ s⁻¹. Also, in series [3], the Michaelis-Menten constant (Km) was found to be 1000 ± 280 µM, the Vmax is 25.6 µM/min, the kcat turned out to be 0.0608 ± 0.00433 s⁻¹ and the specificity constant (kcat/Km) was 61 M⁻¹ s⁻¹.

The values above are taken from article PMC9888213, “The Mobility of the Cap Domain Is Essential for the Substrate Promiscuity of a Family IV Esterase from Sorghum Rhizosphere Microbiome” (Applied and Environmental Microbiology, 2023).
